Test results: US20210269545A1 (published 2021)

Key:
CD38 [1] = target: T1, CD38 (human, UniProt P28907 43-300, limits assumed); assay: BLI (Octet Red), antibody on anti-hIgG Fc (AHC) sensor, 1:1 model
T1 construct: Soluble antigen of the bio-layer interferometry experiments; also called Cluster of Differentiation 38; CD38 antigen (Octet)

CD38 [2] = target: T1, CD38; assay: BLI (Octet Red), antibody on anti-hIgG Fc (AHC) sensor
Method: Binding experiments were performed on Octet Red at 25° C. The antibodies were loaded onto anti-hIgG Fc Capture (AHC) biosensors for 300 seconds. The ligand-loaded sensors were dipped into a two-fold series dilution (starting at 300 nM) of the antigens (CD19 and CD38) for 240 seconds of CD19 and 150 seconds of CD38 for association followed by dissociation for 600 seconds of CD19 and 130 seconds of CD38. Kinetic constants were calculated using a monovalent (1:1) binding model.

Binder | Kd (CD38 [1]) [nM] | binding result (CD38 [2])
BS1M-4 (bispecific antibody, Variant of BS1 in the CDR-H2 of the anti-CD38 arm; not shown: heavy chain constant region of the BS1 format) heavy 1: QVQLVQSGAEVKKPGSSVKVSCKASGGTFSSYAFSWVRQAPGQGLEWMGRVIPHLGTANSAQKFQGRVTITADKSTSTAYMELSSLRSEDTAVYYCARDDIAALGPFDYWGQGTLVTVSS heavy 2: not shown light: not shown | 94.4 | –
BS1M-8 (bispecific antibody, Variant of BS1; not shown: heavy chain constant region of the BS1 format) heavy 1: QVQLVQSGAEVKKPGSSVKVSCKASGGTFSSYAFSWVRQAPGQGLEWMGRVIPHQGTANSAQKFQGRVTITADKSTSTAYMELSSLRSEDTAVYYCARDDIAALGPFDYWGQGTLVTVSS heavy 2: not shown light: not shown | – | no binding
BS1M-7 (bispecific antibody, Variant of BS1 in the CDR-H2 of the anti-CD38 arm; not shown: heavy chain constant region of the BS1 format) heavy 1: QVQLVQSGAEVKKPGSSVKVSCKASGGTFSSYAFSWVRQAPGQGLEWMGRVIPQLGTANSAQKFQGRVTITADKSTSTAYMELSSLRSEDTAVYYCARDDIAALGPFDYWGQGTLVTVSS heavy 2: not shown light: not shown | 60.5 | –
BS1M-2 (bispecific antibody, Variant of BS1; not shown: heavy chain constant region of the BS1 format) heavy 1: QVQLVQSGAEVKKPGSSVKVSCKASGGTFSSYAFSWVRQAPGQGLEWMGRVTPFLGTANSAQKFQGRVTITADKSTSTAYMELSSLRSEDTAVYYCARDDIAALGPFDYWGQGTLVTVSS heavy 2: not shown light: not shown | – | no binding

Further lines, results first:

Kd (CD38 [1]) [nM] | binding result (CD38 [2]) | Binder
– | no binding | BS1M-5 (bispecific antibody, Variant of BS1; not shown: heavy chain constant region of the BS1 format) heavy 1: QVQLVQSGAEVKKPGSSVKVSCKASGGTFSSYAFSWVRQAPGQGLEWMGRVTPHLGTANSAQKFQGRVTITADKSTSTAYMELSSLRSEDTAVYYCARDDIAALGPFDYWGQGTLVTVSS heavy 2: not shown light: not shown
– | no binding | BS1M-9 (bispecific antibody, Variant of BS1; not shown: heavy chain constant region of the BS1 format) heavy 1: QVQLVQSGAEVKKPGSSVKVSCKASGGTFSSYAFSWVRQAPGQGLEWMGRVIPQQGTANSAQKFQGRVTITADKSTSTAYMELSSLRSEDTAVYYCARDDIAALGPFDYWGQGTLVTVSS heavy 2: not shown light: not shown
